Measured values: the RNAGym collection of RNA variant scans (doi:10.1073/pnas.2313332121)

B1: TPR t1 (parent)
chain: GACCAAUCUGCCCUCAGAGCUCGAGAACAUCUUCGGAUGCAGAGGAGGCAGGCUUCGGUGGCGCGAUAGCGCCAACGUCCUCAACCUCCAAUGCAUCCCACCACAUGAUGAUGCCUGAAGAGCCUUGGUUUUUUG

Variants of: B1
Assay: polymerase ribozyme fitness, log enrichment relative to wild type (log ratio); higher = more active; in vitro selection for triplet polymerase activity
How it was run: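 Streptavidin-bead capture of gel-excised extended constructs, followed by RT-PCR, closed a single triplicate in vitro selection round. That round began by annealing PCR-built, transcribed mutant libraries of each subunit of a heterodimeric triplet polymerase ribozyme with a biotinylated primer, the partner subunit and triplets, then incubating them frozen at −7 °C. After Illumina sequencing of inputs and outputs, genotypes needed ≥10 input reads and ≥1 read per output. Fitness is the base-2 logarithm of genotype enrichment over wild-type enrichment, using inverse-variance-weighted replicate averages.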

Variant | polymerase ribozyme fitness (log ratio)
GACCAAUCUGCCCUCAGAGCUCGAGAACAUCUUCGGAUGUAGAGGUGGCAGGCUUCGGUGGCGCGAUAGCGCCAACGUCCUCAACCUCCAAUGCAUCCCUCCACAUGAUGAUGCCUGAAGAGCCUUGGUUUUUUG [C40U A46U A100U] | -3.37
GACCAAUCUGCCCUCAGAGCUCGAGAACAUCUUCGGAUUCAGAGGAGGCAGGGUUCGGUGGCGCGAUAGCGCCAACGUCCUCAACCACCGAUGCAUCCCACCACAUGAUGAUGCCUGAAGAGCCUUGGUUUUUUG [G39U C53G U87A A90G] | -0.306
GACCAAUCUGGCCUCAUAGCUCGAGAACAUCUUCGGAUGCAGAGGAGGCAGGCUUCGGUGGCGCGAUAGCGCCAACGUCCUCAACCUCCACUGCAUCCCACCACAUGAUGAUGCCUAAAGAGCCUUGGUUUUUUG [C11G G17U A91C G117A] | -1.55
GACCAAUCUGCCCUCAGAGCUCGAGAACAUCUUCGGAUGCAGAGGAGGAAGGCUUCGGUGGCGCGAUAGCGCCAACGUCCUCAACCUCCAAUGCAUCCCACCACAUGAUGCUUCCUGAAGAGCCUUGGUUUUUUG [C49A A111C G113U] | -5.03
GACCAAUGUGCCCUCAGAGCUCGAGAACAUCUUCGGAUACAGCGGAGGCAGGCUUCGGUGGCGUGAUAGCGCCAACGUCCUCAACCUCCAAUGCAUCCCACCACAUGAUGAUGCCUGAAGAGCCUUGGUUUUUUG [C8G G39A A43C C64U] | -2.65
GACCAAUCUGGCCUCUGAGCUCGAGAACAUCUUCGGAUGCAGAGGACGCAGGCUUCGGUAGCGCGAUAGCGCCAACGUCCUCAACCUCCAAUGCAUCCCACCACAUGAUGAUGCCUGAAGAGCCUUGGUUUUUUG [C11G A16U G47C G60A] | -3.03
GACCAAUCUGCCCUCAGAGCUCGAGAACAUCUUCGGAUGCAGAGUAGGCAGGCUUCGGUGGCGCGAUAGCGCCAACGUCCUCAACCUCCAAUGCUUCCCACCACAUGAUGAUGCCUGAAGAGCCUUGGUUUUUUG [G45U A95U] | -1.69
GACCAAUCUGCCCUCAGAGCUCGAGAACAUCUUCGGAUGCAGCGGAAGCAGGCUUCGGUGGCGCGAUAGCGCCAACGUCCUCAACCUCCAAUGCAUCCCACCACAUGAUGAUGCCUGAAGAGCCUUGGUUUUUUG [A43C G47A] | -4.53
GACCAAUCUGCCCUCAGAGCUCGAGUACAUCUUCGGAUGAAGAGGAGGCAGGCUUCGGUCGCGCGAUAGCGCCAACGUCCUCAACCUCCAAUGCAUCCCACCACAUGAUGAUGCCUGAAGAGCCUUGGUUUUUUG [A26U C40A G60C] | -6.14
GACCAAUCUGCCUUCAGAGCUCGAGAACAUCUUCGGAUCCAGAGGAGGCAGGCUUCGGUGGCGCGAUAGCGUCAACGUCCUCAACCUCCAAUGCAUCCCACCACAGGAUGAUGCCUGAAGAGCCUUGGUUUUUUG [C13U G39C C72U U106G] | -2.03
GACCAAUCUGUCCUCAGAGCUCGAGAACAUCUUCGGAUGCAGAGGAGGGAGGCUUCGGUGGCGCGAUAGCGCCAACGUCCUCAACCUCCAAUGCAUCCCACCACAUGAUGAUGCCUGAAGAGCCUUGGUUUUUUG [C11U C49G] | -1.44
GACCAAUCUGCCCUCAGAGCUCGAGAACAUCUUCGGAUGCAGAGGAGGCAGGCUUCGGUGGCGCGAUAGCGCCAACGUCCUCAACCUCCAAUGCAUCCCACCAUAUGAGGAUGCCUGAAGAGCCUUGGUUUUUUG [C104U U109G] | -3.57
GACCAAUCUGCCCUCAGAGCUCGAGAACAUCUUCGGAUGCAGAGGAGGCAGGCUUAGGUGGCGCGAUAUCGCCAACGACCUCAACCUCCCAUGCAUACCACCACAUGAUGAUGCCUGUAGAGCCUUGGUUUUUUG [C56A G69U U78A A90C C97A A118U] | -4.65
GACCAAUCUGCCCUCAGAGCUCGAGAACAUCUUCGGAUGAAGAGGAGGCAGGCUUCGGUGGCGCGAUAGCGCCAACGUCCUCAACCAUCAAUGCAUCCCACCACAUGAUGAUGCCUGAAGAGCCUUGGUUUUUUC [C40A U87A C88U G135C] | -2.71
GACCAAUCUGCCCUCAGAGCUCGAGAACAUCUUCGGAUGCCGAGGAGGCAGGCUUCCGUGGCGCGAUAGCGCCAACGUCCUCAACCUCCGAUGCAUACCACCACAUGAUGAUGCCUGAAGAGCCUUGGUUUUUUG [A41C G57C A90G C97A] | -4.54
GACCAAUCUGCCCUCUGCGCUCGAGAACAUCUUCGGAUGCAGAGGAGGCAGACUUCGGUGGCGCGAUAGCGCCAACGUCCUCAACCUCCAAUGCACCCCACCACAUGAUGAAGCCUGAAGAGCCUUGGUUUUUUG [A16U A18C G52A U96C U112A] | -4.51
GACCAAUAUGCCCUCAGAGCUCGAGAACAUCUUCGGAUGCAGAGGAGGCAGUCUUCGGUGGCGCGAUAGCGCCAACGUCCUCAACCUCCAUUGCAUCCCACCACAUGAUGAAGCCUGCAGAGCCUUGGUUCUUUG [C8A G52U A91U U112A A118C U131C] | -1.36
GACCAAUCUGCCCUCAGAGCUCGAGAACAUCUUAGGAUGCAGAGGAGGCAGGCUUCGGUGGCGCGAUAGCGCCAACGUCCUCAACCUCCAAUGCAUCCCACCACAUGAUGAGGCCUGAAGAGCCUUGGUAUUAUG [C34A U112G U130A U133A] | -3.74
GACCAAUCUGCCCUCUGAGCUCGAGAACAUCUUCGGAUGCAGAGGAGGCAGGCUUCGGUGGCGCGAUAGCGGCAACGUCCUCAACCUCCAAUGCAUCCCACCAUAUGAUGAUGCCUGAAGAGCCUUGGUUUUUUG [A16U C72G C104U] | -1.7
GACCAAUCUGCCCUCAGAGCUCGAGAACAUCUUCGGAUGCAGAGGAGGCAGGCUUCGGUGGCGCGAUAGCGCCAACAUCCUCAACCUCCAAUGCAUCCCACCACAUGAUGAUGCUUGAAGAGCCUUGAUUUUUUG [G77A C115U G128A] | -3.21
GACCAAUCUGCUCUCAGAGCUCGAGAACAUCUUCGGAUGCAGAGGAUGCAGGCUUCGGUGGCACGAUAGCGCCAACGUCCUCAACCUCCAAUGCAUCCCACCACAUGAUGAUGCCUGAAGAGCCUUGGAUUUUUG [C12U G47U G63A U129A] | -3.16
